Literature values in PMC5726790.

Tests used:
[1] = target: C5a receptor (Homo sapiens) (UniProt P21730)
[2] = target: CCR7 (Mus musculus) (UniProt P47774)
Sequence of UniProt P47774 (P47774 25-378): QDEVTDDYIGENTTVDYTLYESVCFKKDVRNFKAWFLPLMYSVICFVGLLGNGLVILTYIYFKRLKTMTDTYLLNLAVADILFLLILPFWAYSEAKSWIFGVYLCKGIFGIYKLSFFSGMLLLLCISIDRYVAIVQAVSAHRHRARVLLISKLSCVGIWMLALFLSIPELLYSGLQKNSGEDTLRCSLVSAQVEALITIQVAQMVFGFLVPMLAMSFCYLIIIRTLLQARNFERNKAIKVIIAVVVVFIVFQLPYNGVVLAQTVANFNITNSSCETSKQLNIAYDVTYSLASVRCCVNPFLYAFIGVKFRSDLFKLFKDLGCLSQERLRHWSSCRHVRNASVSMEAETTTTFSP

Sequence of UniProt P21730 (P21730 whole entry): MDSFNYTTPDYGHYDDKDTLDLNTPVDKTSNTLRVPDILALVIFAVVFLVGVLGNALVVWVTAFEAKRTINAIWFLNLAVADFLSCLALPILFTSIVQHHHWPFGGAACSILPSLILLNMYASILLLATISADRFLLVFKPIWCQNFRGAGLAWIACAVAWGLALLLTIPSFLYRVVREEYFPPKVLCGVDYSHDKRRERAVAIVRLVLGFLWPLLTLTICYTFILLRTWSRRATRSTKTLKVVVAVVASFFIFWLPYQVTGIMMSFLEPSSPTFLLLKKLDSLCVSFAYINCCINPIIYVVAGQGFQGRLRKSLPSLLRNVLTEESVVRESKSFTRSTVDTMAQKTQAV

Row | Substance | Kd [1] [nM] | Kd [2] [nM]
1 | C5a C5a (from UniProt P01031) | 1 | –
2 | CCL19 (from UniProt O70460) | – | 1.5
